Laboratory results: US20220023420A1 (PRECIGEN, published 2022)

What was measured:
Experiment in all cases: SPR (Biacore 3000), fusion protein immobilized on CM5, TGF-β injected
TGF-β2 = target: T1, TGF-β2 (UniProt P61812 303-414)
T1 sequence (looked up): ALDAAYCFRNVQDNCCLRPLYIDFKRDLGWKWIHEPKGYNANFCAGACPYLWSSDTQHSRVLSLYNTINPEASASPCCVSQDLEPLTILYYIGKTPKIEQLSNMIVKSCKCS
Method: (§1) Surface plasma resonance (SPR) analysis was performed using Biacore3000, CM5 chip, an amine-coupling kit, 10×HBS-P running buffer and Glycine for regeneration (GE Healthcare). […] Dissociation was allowed to proceed followed by a pulse of 10 mM Glycine (pH 1.5) for regeneration of the chip surface.

TGF-β3 = target: T2, TGF-β3 (UniProt P10600 301-412)
T2 sequence (looked up): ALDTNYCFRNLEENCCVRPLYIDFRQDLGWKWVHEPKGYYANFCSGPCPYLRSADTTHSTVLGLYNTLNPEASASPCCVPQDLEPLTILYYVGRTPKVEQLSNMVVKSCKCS
Method: as §1

TGF-β1 = target: T3, TGF-β1 (UniProt P01137 279-390)
T3 construct: also called TGF-b1
T3 sequence (P01137 279-390 limits assumed): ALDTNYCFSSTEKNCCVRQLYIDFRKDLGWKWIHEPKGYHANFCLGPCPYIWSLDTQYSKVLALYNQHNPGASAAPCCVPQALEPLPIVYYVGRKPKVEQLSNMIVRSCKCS
Method: as §1

B1: Anti-PD-1(VH6-VL5) IgG4-TGFβRII (other)
heavy: QVQLVESGGGVVQPGRSLRLDCKASGITFSNSGMHWVRQAPGKGLEWVAVIWYDGSKRYYADSVKGRFTISRDNSKNTLFLQMNSLRAEDTAVYYCATNDDYWGQGTLVTVSSASTKGPSVFPLAPCSRSTSESTAALGCLVKDYFPEPVTVSWNSGALTSGVHTFPAVLQSSGLYSLSSVVTVPSSSLGTKTYTCNVDHKPSNTKVDKRVESKYGPPCPSCPAPEFLGGPSVFLFPPKPKDTLMISRTPEVTCVVVDVSQEDPEVQFNWYVDGVEVHNAKTKPREEQFNSTYRVVSVLTVLHQDWLNGKEYKCKVSNKGLPSSIEKTISKAKGQPREPQVYTLPPSQEEMTKNQVSLTCLVKGFYPSDIAVEWESNGQPENNYKTTPPVLDSDGSFFLYSRLTVDKSRWQEGNVFSCSVMHEALHNHYTQKSLSLSPGKGGGGSGGGGSIPPHVQKSVNNDMIVTDNNGAVKFPQLCKFCDVRFSTCDNQKSCMSNCSITSICEKPQEVCVAVWRKNDENITLETVCHDPKLPYHDFILEDAASPKCIMKEKKKPGETFFMCSCSSDECNDNIIFSEEYNTSNPD
light: not shown
notes: also called anti-PD-1 IgG4 antibody (VH6-VL5)-TGFβRII fusion protein; VH6-IgG4(wt)-linker-ECD with VL5
Binder B1 has a Kd (TGF-β2) of 859 pM, a Kd (TGF-β3) of 2.19 pM and a Kd (TGF-β1) of 5.22 pM.
